Assay: soluble on expression in E. coli; label from the status in PepcDB or PDB records

Which “soluble on expression in E. coli” value does the source give for “MVIAYVDANLQTNRQTIYFDHDLNRNKYNTIQLKKLTMTQDSDSEYEIERIIDHVSFLEAYESFYGQNVKRFAAIFSEERFKRTKKPQLISNYFFLVKWLGYGNKEMTWEPESNIPDSVYLYEYKKLNNMVMNRMNLKVSLTFTSRRKGYTPPVILEELQERKPKPQFLNMSNMAITLNDNLNNGKFGIVPVPKYKKKFGQNVNYLKFGNEVYKMKNVSFKDSTNNDIDNRVQQHHHEDRSFLQSMIKHNNIVRMRDLFVSYNKLDETVNITSIYDWCHQNLRQQLNNEKVSWKKVCRDILNALSFIHPYGIHQGVSLDHIYYHKGGTYKLSHFNNFFFGKRIPAEKVKSDRVELAPRLYNLKFKLGRNSDIYALAIVLLQCHNKKFSFRVNPSSVMEIEEDIAKGMSAFENKDDRHFLKSLLRARLHVYHGSGHYRFTSSSLLHHPVLQEPTARSVECFYFHSMLASPMKEIIHYHANDKISDVLQRFISLYHTSQEAEDKKYIMMFTKDTSSCDSVVLLNSLENFERVVDIDLTIMKNTLLIAPIILPSPENENCQKFLIIYEQELGGCPIVIETPEVNAAKFAKQLKEYSVSHEYRNRRLGLFPKLPGGDQQENGGLPEFSHHVWQMQLESNDDTVIKNRFDIASEIEMPLSGEMLEWDDVAGIANYGEILRNNSDNTTSRRKRETCSSDELDEAHAKREKVD” here?
Its value is “not soluble”.

Which “soluble on expression in E. coli” value does the source give for “MSETTQGPTHFRLMSKLKAIGPYLREPQSQEGRYYFDCLSVCVDDKKSPEKREFWGWWMDLESIEGGFTAKYHIGKYNKEGKWVSEALPQKVVEEVYFTQSTFHQKLIDTLAEHFKLEVEYHTESFDFA” here?
The value was “not soluble”.

For “MSLNEQKAQQLLMFFREQAEKPLSVNELEEALNLEDAQEFKELVQVLNEMEEKGLLVRTRSNRYGVPEKMNLLRGVVQGHAKGFAFVIPEEEGHSDVYVSHVDLESAMNGDRVIVRLHPHSTGTRPEGKVIRILERGVSEVIGTYVDHQTYGLVVADDKRIPNDILIVNPEAQGLVDGHKVIVKITKYPEGRMSAEGEVISILGHKNDPGMDILSIIYKYGIPQAFPEEVLQQAQNIPDEIDAGEIKNRRDLRDEPLVTIDGADAKDLDDAVHVSRLPNGNFKLGVHIADVSYYVKEKSPIDLEAAERGTSVYLVDRVIPMIPHRLSNGICSLNPQVDRLTLSCEMEITRDGQVVNHEIFQSVIRTNERMTYHDVNKILVEKEEELRNRYELLVPMFEDMEELAAILRKKRFGRGAIDFDFKEAKVLVDEEGKPSDVVIRERGVAEKLIEEFMLAANETVAEHFHWLKLPFMYRIHEDPDSEKLGRFLEFITNFGYVVRGTANTVHPRALQKLLEEVRGEPEEQVISTVMLRSMQQAKYDPTSLGHFGLSTEFYTHFTSPIRRYPDLIVHRLIREYLIKGNVDEETQEKWRERLPEIARHCSEMERRAVDAERETDDVKKAQFMEDKIGETFTGIISGVTNFGIFVELENTIEGLVHVSYLTDDYYRYDEKHYAMIGERSGNVFRIGDEIEVRVINVNVEEASIDFEIVGMKPRKQRPDKSRPKVIEGGKRKKKENRGALALDGSKPKKKKKKKAFYENAPSAKRKKGKKRKREGHHHHHH”, which “soluble on expression in E. coli” value is on record?
The value was “soluble”.

Which “soluble on expression in E. coli” value does the source give for “GPGSMPTRPLLVKYETPVLLSEVKHKKALKEKKRVAVGAQSGPQAEDVLYSIIPPREFEENGQQWVQYVSSIPATRMDVINLQERLDSLLLERNARETGICPVREELYSQVFDELIRQVTVNCAERGLLLLRVRDELRMTLDAYRSLYESSAAYGMRKALQAEQSKIEMESKIQALEREKEELKQQVEELEYRCESIIQQEKEKFAEAERKHNEEVAFFRRTYQTLTTNLQTLCNATKA” here?
The value was “soluble”.

With “MSLEKNALYFVPLGGAGEIGMNLNLYAHQGKWLMVDLGVTFGNETTPGVDIILPDPSFIEERKGDLVGLVLTHAHEDHVGAVAYLWPYLECPVYATPFTAEFLRHKLREEGIEPDVKLIEIPLGGRFTVGPFDIEMITTTHSIPEPNHLAIRTTAGTVLHTADWKFDPEPLVGPPADEAALRRLGDEGVLAMVGDSTNIFTEGHSASEGDVRRSMIDLFARFQGRIAVGCFASNIARMETIALAAKANGREVALVGRSLWRMMETARTCGYLKGCPAFLGDEEAAKLPRDKVVYICTGSQGEPRAALKRIASGSHPYVSLSAGDVVIFSSRVIPGNERSILQLQNQLVEMGVKLITSRDAMVHVSGHPGAEEVRSLYGMVRPSIALPVHGEFLHLDHHADVARDLGVAHVVRITNGAVVRLDGAEPTVVGKVPFGRLALDGDRLLQIDCEIIRDRKRMGYNGSVAVSLAIDDKGKLLGTPKISARGLLDPEDDADEVADLTNRVRGAVNAVRPADRKDDAAVAEAVRLAVRRVFRQGQNRRPVTDIHVLRVEGHHHHHH” as the sequence, how does the “soluble on expression in E. coli” value read?
The value was “soluble”.

Which “soluble on expression in E. coli” value does the source give for “MSTAPLENAPTPGGARFTKIYDEDGEHIITRDEHKGLEWTAHALDSRHAAGFGNLLRRSGAKKVCRELTLGGHTDWRVPEIEEAMSIGLVDTCWPANETWFWTCTPCEQEPENKAWAFEFGTGNKRIEDRRIWLHVRAVRGQMRTDATATPKAGESLEHHHHHH” here?
The value was “soluble”.

With “MNNQTILIIGAAGNNGMATIESLVSKQPKDTIVAAVRSTDKATLLKKKFPSIKTVIIDLDKPETLTAAYEGVTKVFMIPGNVEEREQHAKNAIDAAVQAGTVKQFLFYSVVGAEYEAILFAQQFRAGEKYLEQSGLNWTHLRTIFFQDNFFGWADGVKQGGLYFGIREGSFAPLNVADIGEMAANILTTSGHEHKAYNITGSELLSGEEMAKVFTDVTGKTVAYISPTKQQTLDSLLSTGWPQWQAEGMLELFEVFATNQAAVVSPDGEQLLGRPLTTLKDFIASNKAAFV” as the sequence, how does the “soluble on expression in E. coli” value read?
The value was “not soluble”.

For “MGSDKIHHHHHHKDTKWVDVPTGTPPEGSVTGKPGETEEPDDPDPTDKTFINCSYIRGDFFETNRISGASMGACNDLIYLTARPYADGDLTFDLPVNDATLTGAATYAASYNGRNGVLKLDGTGKMNAGDGLLHSPDGAFKKFTFGTYIYVSEWVDGACLFKKVDGGSVVIAFQLGATEGNLKLTVGSATATVTNSALKSGAWHYVAVTYDGGAAKLYIDTNNTATDFTGSLPASVPNTRADFVMGENLKGYLDETFVNSLLMGTLGRNPISFDNWNNTKTLAYWKYDDAAKPGKDSHTWAIRLEQIRTALNGQAGDRKIRLGIAGGEWLKMVGNATARTNFANNVKKVIEQYNLDGADLDFEWAYSGTDLSNYSKAIVQLREVLGKDVFLTVSLHPVSYKISAEAIAAVDFISLQCYGPSVELFSMERFKSDGKAAVDYGIPQDKLVMGVPFYGTTGTAGEQAAYFDLVGKGNLTNTSADTWSYEGKNYTLNSQNTIRQKTQYVCENGFGGIMSWDLATDVDVTHEMSLLKAVKEELDYYANPTVE”, which “soluble on expression in E. coli” value is on record?
The value was “not soluble”.

With “MSLSQIVAEVDGYKVTKEELDTLFHVFWKRITHLSSAKPTQEDKRIFLIDYVADLLILKEAKKMGIEVSEKEINDFIRKYVGRKIKEKSVINAVKAEILVEKLVDKLMKEQELNPSEDILRAYYEFYKREFYRPSSVKLLGIYVKSKKEAERISQILKQGEVPSTEDVKVSKPLWYSIPTLPKYIRRNFRTLSVGEVSKPIKINDGYLVFKILDKKPAGFIPFERAKSLVKKMYLKEKRKEVFKKWLSEVLKKYQVRSTGKEGHHHHHH” as the sequence, how does the “soluble on expression in E. coli” value read?
The value was “not soluble”.

Which “soluble on expression in E. coli” value does the source give for “MQFDNIDSALMALKNGETIIVVDDENRENEGDLVAVTEWMNDNTINFMAKEARGLICAPVSKDIAQRLDLVQMVDDNSDIFGTQFTVSIDHVDTTTGISAYERTLTAKKLIDPSSEAKDFNRPGHLFPLVAQDKGVLARNGHTEAAVDLAKLTGAKPAGVICEIMNDDGTMAKGQDLQKFKEKHQLKMITIDDLIEYRKKLEPEIEFKAKVKMPTDFGTFDMYGFKATYTDEEIVVLTKGAIRQHENVRLHSACLTGDIFHSQRCDCGAQLESSMKYINEHGGMIIYLPQEGRGIGLLNKLRAYELIEQGYDTVTANLALGFDEDLRDYHIAAQILKYFNIEHINLLSNNPSKFEGLKQYGIDIAERIEVIVPETVHNHDYMETKKIKMGHLIMAGDPLEHHHHHH” here?
Its value is “not soluble”.

For “MKKKQVMLALTAAAGLGLTALHSAPAAKAAPLHDISVSMPSSDTYIIKAGKLNVRTEPNHEGDILGTVSSEQKVKVDRFVNADWAQIHFKGKKAYISTHFLMKTASQAKTTKQTAFYTPTPENGKAKQLSSGTEVTILGWGFSENGGFDFTWAFVDYGGVKGYIHTKDLQMRLEHHHHHH”, which “soluble on expression in E. coli” value is on record?
Its value is “soluble”.

Which “soluble on expression in E. coli” value does the source give for “MESPNMNQPKINSTAGCALPPPNEMILKWAAERPNEVYLKQIINRQFVEFTYAEVADQALKLVSALRGLGIQPGDKVALVSKNCAE” here?
Its value is “not soluble”.
